B1: Cell adhesion molecule CEACAM6 (Homo sapiens), P40199 (parent)
chain: MGPPSAPPCRLHVPWKEVLLTASLLTFWNPPTTAKLTIESTPFNVAEGKEVLLLAHNLPQNRIGYSWYKGERVDGNSLIVGYVIGTQQATPGPAYSGRETIYPNASLLIQNVTQNDTGFYTLQVIKSDLVNEEATGQFHVYPELPKPSISSNNSNPVEDKDAVAFTCEPEVQNTTYLWWVNGQSLPVSPRLQLSNGNMTLTLLSVKRNDAGSYECEIQNPASANRSDPVTLNVLYGPDVPTISPSKANYRPGENLNLSCHAASNPPAQYSWFINGTFQQSTQELFIPNITVNNSGSYMCQAHNSATGLNRTTVTMITVSGSAPVLSAVATVGITIGVLARVALI
B2: Cell adhesion molecule CEACAM8 (Homo sapiens), P31997 (parent)
chain: MGPISAPSCRWRIPWQGLLLTASLFTFWNPPTTAQLTIEAVPSNAAEGKEVLLLVHNLPQDPRGYNWYKGETVDANRRIIGYVISNQQITPGPAYSNRETIYPNASLLMRNVTRNDTGSYTLQVIKLNLMSEEVTGQFSVHPETPKPSISSNNSNPVEDKDAVAFTCEPETQNTTYLWWVNGQSLPVSPRLQLSNGNRTLTLLSVTRNDVGPYECEIQNPASANFSDPVTLNVLYGPDAPTISPSDTYYHAGVNLNLSCHAASNPPSQYSWSVNGTFQQYTQKLFIPNITTKNSGSYACHTTNSATGRNRTTVRMITVSDALVQGSSPGLSARATVSIMIGVLARVALI

Variants of: B1
Conditions: with ceam8_human CEACAM8, P31997

Variant | effect of a mutation on the interaction
I63A | disrupting interaction strength
Q123A | with no effect
L129A | disrupting interaction strength
L78A | with no effect

Variants of: B2
Conditions: with ceam6_human CEACAM6, P40199

Variant | effect of a mutation on the interaction
R77A | disrupting interaction strength
L129A | disrupting interaction strength
Q123A | with no effect

Source: IntAct's records for PubMed 26483485
